Measurements from article PMC10786891, “Massively parallel profiling of RNA-targeting CRISPR-Cas13d”.

T1: EsCas13d, nuclease-dead (Eubacterium siraeum, UniProt B0MS50, R295A;H300A;R849A;H854A)
T1 sequence: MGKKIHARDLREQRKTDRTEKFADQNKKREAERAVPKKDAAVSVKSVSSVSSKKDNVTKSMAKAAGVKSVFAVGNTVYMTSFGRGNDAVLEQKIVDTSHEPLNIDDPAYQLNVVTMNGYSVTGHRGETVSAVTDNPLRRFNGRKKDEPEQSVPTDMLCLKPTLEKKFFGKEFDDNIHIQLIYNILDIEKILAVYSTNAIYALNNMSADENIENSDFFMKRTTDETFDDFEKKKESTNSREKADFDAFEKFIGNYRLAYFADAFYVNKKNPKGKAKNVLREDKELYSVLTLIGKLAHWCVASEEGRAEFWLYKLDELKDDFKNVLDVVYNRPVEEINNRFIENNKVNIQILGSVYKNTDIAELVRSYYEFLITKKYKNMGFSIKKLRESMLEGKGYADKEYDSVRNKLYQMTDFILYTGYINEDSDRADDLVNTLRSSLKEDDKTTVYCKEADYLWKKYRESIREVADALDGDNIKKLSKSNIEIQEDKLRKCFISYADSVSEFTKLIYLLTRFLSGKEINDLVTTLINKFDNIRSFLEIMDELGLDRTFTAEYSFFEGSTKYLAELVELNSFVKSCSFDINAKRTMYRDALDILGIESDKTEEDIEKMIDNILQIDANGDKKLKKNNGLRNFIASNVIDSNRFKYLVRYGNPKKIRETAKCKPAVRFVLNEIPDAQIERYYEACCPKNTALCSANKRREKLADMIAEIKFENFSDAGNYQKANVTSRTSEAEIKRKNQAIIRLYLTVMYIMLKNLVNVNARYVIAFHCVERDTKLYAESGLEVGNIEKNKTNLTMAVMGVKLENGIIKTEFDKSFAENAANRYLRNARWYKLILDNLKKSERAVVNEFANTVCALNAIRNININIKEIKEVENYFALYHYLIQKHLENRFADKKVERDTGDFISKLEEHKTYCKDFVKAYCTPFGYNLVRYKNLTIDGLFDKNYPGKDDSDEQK

B1: target 2 MT 5'PFS UUG 3'PFS UAC (mixed)
RNA 1: CACCCGUGCAAAAUUGCAGGGGUCUAAAACCUUCUCCAAAUUGUUUCAUCCU
RNA 2: GGGAAUGGAUCCACAUCUACGAAUUCUUGAGGAUGAAACAAUUUGGAGAAGUACAGAUCGGAAGAGCACACGU
B2: target 2 MT 5'PFS UGG 3'PFS UAC (mixed)
RNA 1: CACCCGUGCAAAAUUGCAGGGGUCUAAAACCUUCUCCAAAUUGUUUCAUCCU
RNA 2: GGGAAUGGAUCCACAUCUACGAAUUCUGGAGGAUGAAACAAUUUGGAGAAGUACAGAUCGGAAGAGCACACGU
B3: target 2 MT 5'PFS UUG 3'PFS UAG (mixed)
RNA 1: CACCCGUGCAAAAUUGCAGGGGUCUAAAACCUUCUCCAAAUUGUUUCAUCCU
RNA 2: GGGAAUGGAUCCACAUCUACGAAUUCUUGAGGAUGAAACAAUUUGGAGAAGUAGAGAUCGGAAGAGCACACGU
B4: target 2 MT 5'PFS GGG 3'PFS AUU (mixed)
RNA 1: CACCCGUGCAAAAUUGCAGGGGUCUAAAACCUUCUCCAAAUUGUUUCAUCCU
RNA 2: GGGAAUGGAUCCACAUCUACGAAUUCGGGAGGAUGAAACAAUUUGGAGAAGAUUAGAUCGGAAGAGCACACGU
B5: target 2 MT 5'PFS UAU 3'PFS ACG (mixed)
RNA 1: CACCCGUGCAAAAUUGCAGGGGUCUAAAACCUUCUCCAAAUUGUUUCAUCCU
RNA 2: GGGAAUGGAUCCACAUCUACGAAUUCUAUAGGAUGAAACAAUUUGGAGAAGACGAGAUCGGAAGAGCACACGU
B6: target 2 MT 5'PFS AAG 3'PFS AGG (mixed)
RNA 1: CACCCGUGCAAAAUUGCAGGGGUCUAAAACCUUCUCCAAAUUGUUUCAUCCU
RNA 2: GGGAAUGGAUCCACAUCUACGAAUUCAAGAGGAUGAAACAAUUUGGAGAAGAGGAGAUCGGAAGAGCACACGU
B7: target 2 MT 5'PFS GGG 3'PFS AUC (mixed)
RNA 1: CACCCGUGCAAAAUUGCAGGGGUCUAAAACCUUCUCCAAAUUGUUUCAUCCU
RNA 2: GGGAAUGGAUCCACAUCUACGAAUUCGGGAGGAUGAAACAAUUUGGAGAAGAUCAGAUCGGAAGAGCACACGU
B8: target 2 MT 5'PFS AUG 3'PFS UGU (mixed)
RNA 1: CACCCGUGCAAAAUUGCAGGGGUCUAAAACCUUCUCCAAAUUGUUUCAUCCU
RNA 2: GGGAAUGGAUCCACAUCUACGAAUUCAUGAGGAUGAAACAAUUUGGAGAAGUGUAGAUCGGAAGAGCACACGU
B9: target 2 MT 5'PFS ACA 3'PFS CUC (mixed)
RNA 1: CACCCGUGCAAAAUUGCAGGGGUCUAAAACCUUCUCCAAAUUGUUUCAUCCU
RNA 2: GGGAAUGGAUCCACAUCUACGAAUUCACAAGGAUGAAACAAUUUGGAGAAGCUCAGAUCGGAAGAGCACACGU
B10: target 2 MT 5'PFS AAG 3'PFS CGC (mixed)
RNA 1: CACCCGUGCAAAAUUGCAGGGGUCUAAAACCUUCUCCAAAUUGUUUCAUCCU
RNA 2: GGGAAUGGAUCCACAUCUACGAAUUCAAGAGGAUGAAACAAUUUGGAGAAGCGCAGAUCGGAAGAGCACACGU
B11: target 2 MT 5'PFS UUG 3'PFS UAA (mixed)
RNA 1: CACCCGUGCAAAAUUGCAGGGGUCUAAAACCUUCUCCAAAUUGUUUCAUCCU
RNA 2: GGGAAUGGAUCCACAUCUACGAAUUCUUGAGGAUGAAACAAUUUGGAGAAGUAAAGAUCGGAAGAGCACACGU
B12: target 2 MT 5'PFS AAG 3'PFS AGC (mixed)
RNA 1: CACCCGUGCAAAAUUGCAGGGGUCUAAAACCUUCUCCAAAUUGUUUCAUCCU
RNA 2: GGGAAUGGAUCCACAUCUACGAAUUCAAGAGGAUGAAACAAUUUGGAGAAGAGCAGAUCGGAAGAGCACACGU
B13: target 2 MT 5'PFS AAG 3'PFS AGA (mixed)
RNA 1: CACCCGUGCAAAAUUGCAGGGGUCUAAAACCUUCUCCAAAUUGUUUCAUCCU
RNA 2: GGGAAUGGAUCCACAUCUACGAAUUCAAGAGGAUGAAACAAUUUGGAGAAGAGAAGAUCGGAAGAGCACACGU
B14: target 2 MT 5'PFS AUA 3'PFS CAU (mixed)
RNA 1: CACCCGUGCAAAAUUGCAGGGGUCUAAAACCUUCUCCAAAUUGUUUCAUCCU
RNA 2: GGGAAUGGAUCCACAUCUACGAAUUCAUAAGGAUGAAACAAUUUGGAGAAGCAUAGAUCGGAAGAGCACACGU
B15: target 2 MT 5'PFS GGG 3'PFS AUA (mixed)
RNA 1: CACCCGUGCAAAAUUGCAGGGGUCUAAAACCUUCUCCAAAUUGUUUCAUCCU
RNA 2: GGGAAUGGAUCCACAUCUACGAAUUCGGGAGGAUGAAACAAUUUGGAGAAGAUAAGAUCGGAAGAGCACACGU
B16: target 2 MT 5'PFS CAU 3'PFS AGG (mixed)
RNA 1: CACCCGUGCAAAAUUGCAGGGGUCUAAAACCUUCUCCAAAUUGUUUCAUCCU
RNA 2: GGGAAUGGAUCCACAUCUACGAAUUCCAUAGGAUGAAACAAUUUGGAGAAGAGGAGAUCGGAAGAGCACACGU
B17: target 2 MT 5'PFS CAG 3'PFS UCC (mixed)
RNA 1: CACCCGUGCAAAAUUGCAGGGGUCUAAAACCUUCUCCAAAUUGUUUCAUCCU
RNA 2: GGGAAUGGAUCCACAUCUACGAAUUCCAGAGGAUGAAACAAUUUGGAGAAGUCCAGAUCGGAAGAGCACACGU
B18: target 2 MT 5'PFS UAU 3'PFS ACU (mixed)
RNA 1: CACCCGUGCAAAAUUGCAGGGGUCUAAAACCUUCUCCAAAUUGUUUCAUCCU
RNA 2: GGGAAUGGAUCCACAUCUACGAAUUCUAUAGGAUGAAACAAUUUGGAGAAGACUAGAUCGGAAGAGCACACGU
B19: target 2 MT 5'PFS GCU 3'PFS CGC (mixed)
RNA 1: CACCCGUGCAAAAUUGCAGGGGUCUAAAACCUUCUCCAAAUUGUUUCAUCCU
RNA 2: GGGAAUGGAUCCACAUCUACGAAUUCGCUAGGAUGAAACAAUUUGGAGAAGCGCAGAUCGGAAGAGCACACGU
B20: target 2 MT 5'PFS AAG 3'PFS CGG (mixed)
RNA 1: CACCCGUGCAAAAUUGCAGGGGUCUAAAACCUUCUCCAAAUUGUUUCAUCCU
RNA 2: GGGAAUGGAUCCACAUCUACGAAUUCAAGAGGAUGAAACAAUUUGGAGAAGCGGAGAUCGGAAGAGCACACGU
B21: target 2 MT 5'PFS GAA 3'PFS UAU (mixed)
RNA 1: CACCCGUGCAAAAUUGCAGGGGUCUAAAACCUUCUCCAAAUUGUUUCAUCCU
RNA 2: GGGAAUGGAUCCACAUCUACGAAUUCGAAAGGAUGAAACAAUUUGGAGAAGUAUAGAUCGGAAGAGCACACGU
B22: target 2 MT 5'PFS AAG 3'PFS CGA (mixed)
RNA 1: CACCCGUGCAAAAUUGCAGGGGUCUAAAACCUUCUCCAAAUUGUUUCAUCCU
RNA 2: GGGAAUGGAUCCACAUCUACGAAUUCAAGAGGAUGAAACAAUUUGGAGAAGCGAAGAUCGGAAGAGCACACGU
B23: target 2 MT 5'PFS ACC 3'PFS ACA (mixed)
RNA 1: CACCCGUGCAAAAUUGCAGGGGUCUAAAACCUUCUCCAAAUUGUUUCAUCCU
RNA 2: GGGAAUGGAUCCACAUCUACGAAUUCACCAGGAUGAAACAAUUUGGAGAAGACAAGAUCGGAAGAGCACACGU
B24: target 2 MT 5'PFS GGG 3'PFS AUG (mixed)
RNA 1: CACCCGUGCAAAAUUGCAGGGGUCUAAAACCUUCUCCAAAUUGUUUCAUCCU
RNA 2: GGGAAUGGAUCCACAUCUACGAAUUCGGGAGGAUGAAACAAUUUGGAGAAGAUGAGAUCGGAAGAGCACACGU
B25: target 2 MT 5'PFS GCC 3'PFS ACU (mixed)
RNA 1: CACCCGUGCAAAAUUGCAGGGGUCUAAAACCUUCUCCAAAUUGUUUCAUCCU
RNA 2: GGGAAUGGAUCCACAUCUACGAAUUCGCCAGGAUGAAACAAUUUGGAGAAGACUAGAUCGGAAGAGCACACGU
B26: target 2 MT 5'PFS ACA 3'PFS CUU (mixed)
RNA 1: CACCCGUGCAAAAUUGCAGGGGUCUAAAACCUUCUCCAAAUUGUUUCAUCCU
RNA 2: GGGAAUGGAUCCACAUCUACGAAUUCACAAGGAUGAAACAAUUUGGAGAAGCUUAGAUCGGAAGAGCACACGU
B27: target 1 C7A,A18C (mixed)
RNA 1: CACCCGUGCAAAAAUGCAGGGGUCUAAAACUGAGCGGAUAACCUCUCUAUGG
RNA 2: GGGAAUGGAUCCACAUCUACGAAUUCGUACCAUCGAGAGGUUAUACGCUCACCGAGAUCGGAAGAGCACACGU
B28: target 1 insU 3' of 15,insA 3' of 8 (mixed)
RNA 1: CACCCGUGCAAAAAUGCAGGGGUCUAAAACUGAGCGGAUAACCUCUCUAUGG
RNA 2: GGGAAUGGAUCCACAUCUACGAAUUCGUACCAUAGAGUAGGUUAUACCGCUCACCGAGAUCGGAAGAGCACACGU

The binders below were run against T1, EsCas13d, nuclease-dead (assay: crRNA (strand 1, pre-loaded); Mg2+; 40 mM Tris-HCl pH 7.5, 150 mM NaCl, 6 mM MgCl2, 1 mM DTT, 0.1% Tween-20, 0.2 mg/ml BSA; 25 C; 10 min per concentration, then washed). Conditions: tags: His6-TwinStrep-SUMO cleaved; N-terminal SNAP kept (SNAP-Surface 488); label: 3' end held by stalled T7 RNA polymerase.
Binder B1 has a Kd of 14.3 ± 1.2 nM. Work on B2 yielded a Kd of 8.6 ± 0.9 nM. B3 gave a Kd of 10.9 ± 1.2 nM. B4 showed a Kd of 9 ± 0.8 nM. Binder B5 has a Kd of 58 ± 6 nM. Binder B6 has a Kd of 5.7 ± 1 nM. Work on B7 yielded a Kd of 8.5 ± 0.8 nM. B8 gave a Kd of 21 ± 2.6 nM. For B9, the Kd was 6.7 ± 1 nM. With B10 the Kd was 3.34 ± 0.31 nM. B11 showed a Kd of 12.8 ± 2 nM. Binder B12 has a Kd of 3.7 ± 0.4 nM. With B13 the Kd was 2.5 ± 0.28 nM. Binder B14 has a Kd of 4.6 ± 0.8 nM. B15 gave a Kd of 7.1 ± 0.5 nM. B16 was tested, and the Kd was 2.8 ± 0.4 nM. With B17 the Kd was 29 ± 8 nM. With B18 the Kd was 76 ± 25 nM. Work on B19 yielded a Kd of 12.1 ± 1.3 nM. B20 showed a Kd of 3.4 ± 0.5 nM. For B21, the Kd was 7.8 ± 1 nM. With B22 the Kd was 4.5 ± 0.5 nM. Binder B23 has a Kd of 8 ± 4 nM. Work on B24 yielded a Kd of 9.2 ± 0.6 nM. In the case of B25, the Kd is reported as 12.9 ± 1.9 nM. B26 gave a Kd of 12 ± 4 nM. Binder B27 has a Kd of 70 ± 6 nM. For B28, the Kd was 16.8 ± 2 nM.
